Reference: the Human Domainome abundance scans (Beltran et al. 2025)
± gives the uncertainty stated by the source.

B1: Tumor protein 63, residues 545 to 610; numbered along this chain, Q9H3D4 (parent)
chain: TDCSIVSFLARLGCSSCLDYFTTQGLTTIYQIEHYSMDDLASLKIPEQFRHAIWKGILDHRQLHEF

Variants of: B1
Assay: abundance fitness (aPCA) (normalised: wild type 0, dead -1); higher = more abundant; growth selection in yeast, the domain comes from the species named
Details: Homo sapiens

Variant	abundance fitness
TDCSIVSFLARLGCSSCLDYFTTQGLTTIYQIEHYSMDDLASLKIPEQFRHAIWKGILDHRQLREF [H64R]	-0.019 ± 0.025
TDCSIVSFLARLGCSSCLDYFTTQGLTTIYQIEHYSMDDLASLKIPEQFRHAIWKGILDHRQLAEF [H64A]	-0.002 ± 0.021
TDCSIVSFLARLGCSSCLDYFTTQGLTTIYQIEHYSMDDLASLKIPEQFRHAIWKGILDHRQLEEF [H64E]	0.034 ± 0.025
TDCSIVSFLARLGCSSCLDYFTTQGLTTIYQIEHYSMDDLASLKIPEQFRHAIWKGILDHRQLSEF [H64S]	0.016 ± 0.025
TDCSIVSFLARLGCSSCLDYFTTQGLTTIYQIEHYSMDDLASLKIPEQFRHAIWKGILDHRQLNEF [H64N]	-0.007 ± 0.041
TDCSIVSFLARLGCSSCLDYFTTQGLTTIYQIEHYSMDDLASLKIPEQFRHAIWKGILDHRQLVEF [H64V]	-0.019 ± 0.019
TDCSIVSFLARLGCSSCLDYFTTQGLTTIYQIEHYSMDDLASLKIPEQFRHAIWKGILDHRQLDEF [H64D]	-0.028 ± 0.039
TDCSIVSFLARLGCSSCLDYFTTQGLTTIYQIEHYSMDDLASLKIPEQFRHAIWKGILDHRQLIEF [H64I]	-0.061 ± 0.038
TDCSIVSFLARLGCSSCLDYFTTQGLTTIYQIEHYSMDDLASLKIPEQFRHAIWKGILDHRQLKEF [H64K]	-0.018 ± 0.043
TDCSIVSFLARLGCSSCLDYFTTQGLTTIYQIEHYSMDDLASLKIPEQFRHAIWKGILDHRHLHEF [Q62H]	-0.011 ± 0.031
TDCSIVSFLARLGCSSCLDYFTTQGLTTIYQIEHYSMDDLASLKIPEQFRHAIWKGILDHRTLHEF [Q62T]	-0.023 ± 0.028
TDCSIVSFLARLGCSSCLDYFTTQGLTTIYQIEHYSMDDLASLKIPEQFRHAIWKGILDHRSLHEF [Q62S]	-0.025 ± 0.025
TDCSIVSFLARLGCSSCLDYFTTQGLTTIYQIEHYSMDDLASLKIPEQFRHAIWKGILDHRYLHEF [Q62Y]	-0.083 ± 0.042
TDCSIVSFLARLGCSSCLDYFTTQGLTTIYQIEHYSMDDLASLKIPEQFRHAIWKGILDHRLLHEF [Q62L]	-0.039 ± 0.027
TDCSIVSFLARLGCSSCLDYFTTQGLTTIYQIEHYSMDDLASLKIPEQFRHAIWKGILDHRRLHEF [Q62R]	0.006 ± 0.02
TDCSIVSFLARLGCSSCLDYFTTQGLTTIYQIEHYSMDDLASLKIPEQFRHAIWKGILDHRELHEF [Q62E]	0.013 ± 0.04
TDCSIVSFLARLGCSSCLDYFTTQGLTTIYQIEHYSMDDLASLKIPEQFRHAIWKGILDHRKLHEF [Q62K]	-0.021 ± 0.032
TDCSIVSFLARLGCSSCLDYFTTQGLTTIYQIEHYSMDDLASLKIPEQFRHAIWKGILDHRNLHEF [Q62N]	-0.056 ± 0.039
TDCSIVSFLARLGCSSCLDYFTTQGLTTIYQIEHYSMDDLASLKIPEQFRHAIWKGILDHRVLHEF [Q62V]	-0.051 ± 0.025
TDCSIVSFLARLGCSSCLDYFTTQGLTTIYQIEHYSMDDLASLKIPEQFRHAIWKGILDHRDLHEF [Q62D]	-0.03 ± 0.033
TDCSIVSFLARLGCSSCLDYFTTQGLTTIYQIEHYSMDDLASLKIPEQFRHAIWKGILDHRGLHEF [Q62G]	-0.023 ± 0.017

Variant	abundance fitness
TDCSIVSFLARLGCSSCLDYFTTQGLTTIYQIEHYSMDDLASLKIPEQFRHAIWKGILDHRWLHEF [Q62W]	-0.144 ± 0.034
TDCSIVSFLARLGCSSCLDYFTTQGLTTIYQIEHYSMDDLASLKIPEQFRHAIWKGILDHRILHEF [Q62I]	-0.151 ± 0.042
TDCSIVSFLARLGCSSCLDYFTTQGLTTIYQIEHYSMDDLASLKIPEQFRHAIWKGILDHRALHEF [Q62A]	-0.011 ± 0.025
TDCSIVSFLARLGCSSCLDYFTTQGLTTIYQIEHYSMDDLASLKIPEQFRHAIWKGILDMRQLHEF [H60M]	-0.011 ± 0.025
TDCSIVSFLARLGCSSCLDYFTTQGLTTIYQIEHYSMDDLASLKIPEQFRHAIWKGILDGRQLHEF [H60G]	-0.092 ± 0.044
TDCSIVSFLARLGCSSCLDYFTTQGLTTIYQIEHYSMDDLASLKIPEQFRHAIWKGILDDRQLHEF [H60D]	-0.13 ± 0.04
TDCSIVSFLARLGCSSCLDYFTTQGLTTIYQIEHYSMDDLASLKIPEQFRHAIWKGILDPRQLHEF [H60P]	-0.38 ± 0.042
TDCSIVSFLARLGCSSCLDYFTTQGLTTIYQIEHYSMDDLASLKIPEQFRHAIWKGILDLRQLHEF [H60L]	-0.018 ± 0.023
TDCSIVSFLARLGCSSCLDYFTTQGLTTIYQIEHYSMDDLASLKIPEQFRHAIWKGILDVRQLHEF [H60V]	0 ± 0.028
TDCSIVSFLARLGCSSCLDYFTTQGLTTIYQIEHYSMDDLASLKIPEQFRHAIWKGILDSRQLHEF [H60S]	-0.077 ± 0.027
TDCSIVSFLARLGCSSCLDYFTTQGLTTIYQIEHYSMDDLASLKIPEQFRHAIWKGILDIRQLHEF [H60I]	-0.045 ± 0.042
TDCSIVSFLARLGCSSCLDYFTTQGLTTIYQIEHYSMDDLASLKIPEQFRHAIWKGILDRRQLHEF [H60R]	0.012 ± 0.026
TDCSIVSFLARLGCSSCLDYFTTQGLTTIYQIEHYSMDDLASLKIPEQFRHAIWKGILDFRQLHEF [H60F]	-0.003 ± 0.045
TDCSIVSFLARLGCSSCLDYFTTQGLTTIYQIEHYSMDDLASLKIPEQFRHAIWKGILDYRQLHEF [H60Y]	-0.014 ± 0.037
TDCSIVSFLARLGCSSCLDYFTTQGLTTIYQIEHYSMDDLASLKIPEQFRHAIWKGILDWRQLHEF [H60W]	-0.017 ± 0.038
TDCSIVSFLARLGCSSCLDYFTTQGLTTIYQIEHYSMDDLASLKIPEQFRHAIWKGILDERQLHEF [H60E]	-0.077 ± 0.05
TDCSIVSFLARLGCSSCLDYFTTQGLTTIYQIEHYSMDDLASLKIPEQFRHAIWKGILDQRQLHEF [H60Q]	-0.02 ± 0.059
TDCSIVSFLARLGCSSCLDYFTTQGLTTIYQIEHYSMDDLASLKIPEQFRHAIWKGILDNRQLHEF [H60N]	-0.015 ± 0.035
TDCSIVSFLARLGCSSCLDYFTTQGLTTIYQIEHYSMDDLASLKIPEQFRHAIWKGILDKRQLHEF [H60K]	-0.064 ± 0.03
TDCSIVSFLARLGCSSCLDYFTTQGLTTIYQIEHYSMDDLASLKIPEQFRHAIWKGILDTRQLHEF [H60T]	-0.027 ± 0.032
